This test deals with Ovalbumin-specific OTII T cells. Put plainly: Example 5: adoptive transfer of ovalbumin-specific OTII T cells, antigen-specific Treg induction. The format is in vivo. As to conditions: mice with adoptively transferred OTII T cells; starting level ~3%. Here is the method:
However, expansion of antigen-specific Treg can be more desirable than expansion of total Treg. The ability of ImmTOR plus antigen combined with IL-2 mutein to induce and/or expand antigen-specific Treg was evaluated. Ovalbumin-specific OTII T cells were adoptively transferred into mice prior to treatment with ovalbumin and ImmTOR and/or IL-2 mutein.

B1: ovalbumin (protein, UniProt P01012 2-386, looked up)
Ovalbumin: GSIGAASMEFCFDVFKELKVHHANENIFYCPIAIMSALAMVYLGAKDSTRTQINKVVRFDKLPGFGDSIEAQCGTSVNVHSSLRDILNQITKPNDVYSFSLASRLYAEERYPILPEYLQCVKELYRGGLEPINFQTAADQARELINSWVESQTNGIIRNVLQPSSVDSQTAMVLVNAIVFKGLWEKAFKDEDTQAMPFRVTEQESKPVQMMYQIGLFRVASMASEKMKILELPFASGTMSMLVLLPDEVSGLEQLESIINFEKLTEWTSSNVMEERKIKVYLPRMKMEEKYNLTSVLMAMGITDVFSSSANLSGISSAESLKISQAVHAAHAEINEAGREVVGSAEAGVDAASVSEEFRADHPFLFCIKHIATNAVLFFGRCVSP
B1: the “percentage of Foxp3+ DTII cells” value was around 6%.

Source of the values: US20230381277A1, “HIGH AFFINITY IL-2 RECEPTOR AGONISTS AND IMMUNOSUPPRESSANTS TO ENHANCE IMMUNE TOLERANCE” (Selecta Biosciences, Inc., priority 2022, published 2023).
